This is an account of results in PMC4466236, “A Novel AT-Rich DNA Recognition Mechanism for Bacterial Xenogeneic Silencer MvaT”.

The target in data set [1] is T1, MvaT (Pseudomonas aeruginosa PAO1) (UniProt Q9HW86).
T1 sequence: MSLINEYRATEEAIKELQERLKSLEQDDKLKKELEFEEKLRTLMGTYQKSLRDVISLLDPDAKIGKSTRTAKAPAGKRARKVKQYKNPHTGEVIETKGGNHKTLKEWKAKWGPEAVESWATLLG

For data set [2], the system named is MvaT full-length (Pseudomonas aeruginosa PAO1?). In words: EMSA. Conditions: EMSA: 8 mM Tris pH 8.0, 15 mM HEPES pH 7.9, 40 mM NaCl, 40 mM KCl, 1.4 mM EDTA, 0.5 mM DTT, 9.95% glycerol, room temp, NMR: 50 mM Na phosphate, 50 mM NaCl. In general terms: In EMSA bound probe runs differently from free probe, usually more slowly.
Data set [3] has the same test system. Put plainly: competition. Conditions: EMSA: 8 mM Tris pH 8.0, 15 mM HEPES pH 7.9, 40 mM NaCl, 40 mM KCl, 1.4 mM EDTA, 0.5 mM DTT, 9.95% glycerol, room temp, NMR: 50 mM Na phosphate, 50 mM NaCl.
Data set [4] has as its target T2, MvaT full-length (Pseudomonas aeruginosa PAO1?) (UniProt Q9HW86).
T2 sequence: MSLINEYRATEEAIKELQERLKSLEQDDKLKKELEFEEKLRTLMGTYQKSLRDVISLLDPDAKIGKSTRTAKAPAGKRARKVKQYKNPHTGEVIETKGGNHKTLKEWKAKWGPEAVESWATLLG
In words: EMSA. Conditions: EMSA: 8 mM Tris pH 8.0, 15 mM HEPES pH 7.9, 40 mM NaCl, 40 mM KCl, 1.4 mM EDTA, 0.5 mM DTT, 9.95% glycerol, room temp, NMR: 50 mM Na phosphate, 50 mM NaCl.

Data set [5] addresses T3, MvaTctd K102A (Pseudomonas aeruginosa PAO1, UniProt Q9HW86 77-124, K102A).
T3 chain: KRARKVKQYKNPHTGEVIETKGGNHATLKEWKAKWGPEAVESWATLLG
In words: ITC; 283 K; slightly lower affinity, Kd +70%; EMSA: 8 mM Tris pH 8.0, 15 mM HEPES pH 7.9, 40 mM NaCl, 40 mM KCl, 1.4 mM EDTA, 0.5 mM DTT, 9.95% glycerol, room temp; NMR: 50 mM Na phosphate, 50 mM NaCl, pH 6.0, 298 K; ITC: 283 K, 0.15 mM DNA in cell, buffer not stated (protein purified in NMR buffer). Conditions: protein: recombinant; tags: C-terminal His6; blunt, self-complementary. Background: ITC needs no label: the signal is the heat of the interaction.

Data set [6] addresses T4, MvaTctd N100A (Pseudomonas aeruginosa PAO1, UniProt Q9HW86 77-124, N100A).
T4 chain: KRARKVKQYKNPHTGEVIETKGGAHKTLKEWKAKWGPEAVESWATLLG
In words: ITC; 283 K; EMSA: 8 mM Tris pH 8.0, 15 mM HEPES pH 7.9, 40 mM NaCl, 40 mM KCl, 1.4 mM EDTA, 0.5 mM DTT, 9.95% glycerol, room temp; NMR: 50 mM Na phosphate, 50 mM NaCl, pH 6.0, 298 K; ITC: 283 K, 0.15 mM DNA in cell, buffer not stated (protein purified in NMR buffer). Conditions: protein: recombinant; tags: C-terminal His6; blunt, self-complementary.

In data set [7] the target is T5, MvaTctd K97A (Pseudomonas aeruginosa PAO1, UniProt Q9HW86 77-124, K97A).
T5 chain: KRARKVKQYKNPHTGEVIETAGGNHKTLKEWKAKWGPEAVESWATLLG
Put plainly: NMR titration; similar to WT; EMSA: 8 mM Tris pH 8.0, 15 mM HEPES pH 7.9, 40 mM NaCl, 40 mM KCl, 1.4 mM EDTA, 0.5 mM DTT, 9.95% glycerol, room temp; NMR: 50 mM Na phosphate, 50 mM NaCl, pH 6.0, 298 K; ITC: 283 K, 0.15 mM DNA in cell, buffer not stated (protein purified in NMR buffer). Conditions: protein: recombinant; tags: C-terminal His6; blunt, self-complementary.

The target in data set [8] is T6, MvaTctd K81A (Pseudomonas aeruginosa PAO1, UniProt Q9HW86 77-124, K81A).
T6 chain: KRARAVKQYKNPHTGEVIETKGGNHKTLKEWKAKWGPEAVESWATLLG
Described as above. Conditions: protein: recombinant; tags: C-terminal His6; blunt, self-complementary.

For data set [9], the target named is T7, MvaTctd K108A (Pseudomonas aeruginosa PAO1, UniProt Q9HW86 77-124, K108A).
T7 chain: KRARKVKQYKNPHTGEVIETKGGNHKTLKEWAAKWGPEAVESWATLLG
In words: ITC; 283 K; EMSA: 8 mM Tris pH 8.0, 15 mM HEPES pH 7.9, 40 mM NaCl, 40 mM KCl, 1.4 mM EDTA, 0.5 mM DTT, 9.95% glycerol, room temp; NMR: 50 mM Na phosphate, 50 mM NaCl, pH 6.0, 298 K; ITC: 283 K, 0.15 mM DNA in cell, buffer not stated (protein purified in NMR buffer). Conditions: protein: recombinant; tags: C-terminal His6; blunt, self-complementary.

For data set [10], the target named is T8, MvaTctd K105A (Pseudomonas aeruginosa PAO1, UniProt Q9HW86 77-124, K105A).
T8 chain: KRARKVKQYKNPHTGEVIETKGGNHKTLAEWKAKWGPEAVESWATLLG
Described as above. Conditions: protein: recombinant; tags: C-terminal His6; blunt, self-complementary.

Data set [11] addresses T9, MvaTctd R80A (Pseudomonas aeruginosa PAO1, UniProt Q9HW86 77-124, R80A).
T9 chain: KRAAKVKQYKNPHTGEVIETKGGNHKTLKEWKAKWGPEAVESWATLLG
The data set is described as above. Conditions: protein: recombinant; tags: C-terminal His6; blunt, self-complementary.

The target in data set [12] is T10, MvaTctd WT (Pseudomonas aeruginosa PAO1, UniProt Q9HW86 77-124).
T10 chain: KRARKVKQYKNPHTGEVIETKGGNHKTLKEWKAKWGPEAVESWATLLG
The data set is described as above. Conditions: protein: recombinant; tags: C-terminal His6; blunt, self-complementary.

Regarding “AAATATAT (double strand) [8-mer AAATATAT]”, the binding signal (PBM E-score (-0.5 to 0.5)) in [1] worked out at 0.482.

Consider “TATTATAA (double strand) [8-mer TATTATAA]”, for which, in data set [1], the binding signal (PBM E-score (-0.5 to 0.5)) was found to be 0.48.

For “AATATATT (double strand) [8-mer AATATATT]”, the binding signal (PBM E-score (-0.5 to 0.5)) in data set [1] was found to be 0.485.

The molecule “TATTAATA (double strand) [8-mer TATTAATA]” gave a binding signal (PBM E-score (-0.5 to 0.5)) in data set [1] of 0.481.

In data set [1], “TTATATAA (double strand) [8-mer TTATATAA]” registered a binding signal (PBM E-score (-0.5 to 0.5)) of 0.483.

For “TTAATTAA (double strand) [8-mer TTAATTAA]”, in data set [1], the binding signal (PBM E-score (-0.5 to 0.5)) turned out to be 0.481.

As for cupA1 promoter 340 bp, the Kd in [2] amounted to 0.057 µM.

In turn, “ATATATTA (double strand) [8-mer ATATATTA]” yielded a binding signal (PBM E-score (-0.5 to 0.5)) in data set [1] of 0.489.

In data set [1], “AATATTAA (double strand) [8-mer AATATTAA]” registered a binding signal (PBM E-score (-0.5 to 0.5)) of 0.478.

With “ATATATAA (double strand) [8-mer ATATATAA]”, the binding signal (PBM E-score (-0.5 to 0.5)) in data set [1] amounted to 0.487.

Consider PA3900 204 bp fragment, for which the Kd in [2] (apparent Kd) is 0.154 µM.

“ATATTAAT (double strand) [8-mer ATATTAAT]” returned a binding signal (PBM E-score (-0.5 to 0.5)) in [1] of 0.484.

Consider PA3900 204 bp fragment, unlabeled, for which the binding (fold molar excess) in [3] is > 200.

With “ATATATAT (double strand) [8-mer ATATATAT]”, in [1], the binding signal (PBM E-score (-0.5 to 0.5)) came out at 0.491.

Regarding “ATATAATA (double strand) [8-mer ATATAATA]”, the binding signal (PBM E-score (-0.5 to 0.5)) in data set [1] is 0.484.

Consider “AATATATA (double strand) [8-mer AATATATA]”, for which the binding signal (PBM E-score (-0.5 to 0.5)) in data set [1] is 0.486.

Turning to “TATATTAA (double strand) [8-mer TATATTAA]”, in data set [1], the binding signal (PBM E-score (-0.5 to 0.5)) stood at 0.482.

Molecule “CCGCAGGTGGCTGAACAGGCCGTGCGCTGGCTGGTCGAGCTGCAGGGCGGCGCCGACGACGAACGCCTGCGCCAGGCCTGGCAGCGCTGGCGCCAGGCGGCCCCGGAACACGAGCAGGCCTGGCGCCACATCGAGGCGGTCAACCAGCGCCTGGCCGGGATAGGCACGCCACTGGCCCTGGCCGCCATCAACGCACCGCATTCG (double strand) [PA3900 204 bp fragment]” registered a Kd in data set [4] of 0.154 µM.

Molecule “TATATATA (double strand) [8-mer TATATATA]” registered a binding signal (PBM E-score (-0.5 to 0.5)) in data set [1] of 0.493.

B1: 3AT (dsDNA)
DNA 1: CGCATATATGCG
DNA 2: CGCATATATGCG
For B1, the binding signal in [5] is ~1.7 fold Kd increase vs WT; in [6], > 3 fold Kd increase vs WT; in data set [9], > 10 fold Kd increase vs WT; in data set [10], > 3 fold Kd increase vs WT; in [11] it was > 10 fold Kd increase vs WT. Also, the binding result in data set [7] and in data set [8] was “binds” in each case. In addition, in data set [12], the Kd was ~10.7 µM.

B2: GC-rich d(CGCGCGCG)2 (dsDNA)
DNA 1: CGCGCGCG
DNA 2: CGCGCGCG
As to B2, the Kd in data set [12] is ~360 µM.
